From publication PMC4823331

Target: pneumolysin (Streptococcus pneumoniae) (UniProt P0C2J9)

pneumolysin, sequence (P0C2J9 whole entry): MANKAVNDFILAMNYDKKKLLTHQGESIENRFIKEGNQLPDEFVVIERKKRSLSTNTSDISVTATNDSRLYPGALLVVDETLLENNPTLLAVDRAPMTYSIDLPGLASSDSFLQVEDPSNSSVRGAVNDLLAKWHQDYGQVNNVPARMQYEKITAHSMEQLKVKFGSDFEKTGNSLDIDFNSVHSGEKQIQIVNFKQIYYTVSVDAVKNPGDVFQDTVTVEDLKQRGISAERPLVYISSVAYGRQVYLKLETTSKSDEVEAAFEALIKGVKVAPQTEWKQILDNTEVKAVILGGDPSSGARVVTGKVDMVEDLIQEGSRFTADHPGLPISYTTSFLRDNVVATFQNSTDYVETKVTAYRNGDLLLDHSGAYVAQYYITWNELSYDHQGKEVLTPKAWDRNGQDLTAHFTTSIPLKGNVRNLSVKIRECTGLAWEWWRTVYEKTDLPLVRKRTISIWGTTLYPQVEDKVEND

## pneumolysin (from UniProt P0C2J9 1-471) (natural protein)
  k0.5 of the reciprocal lag length before lysis of sheep erythrocytes against pneumolysin concentration (fit with Eq. 3), 30.0 °C: 143 nM
  k0.5 of the reciprocal lag length before lysis of sheep erythrocytes against pneumolysin concentration (fit with Eq. 3), 33.0 °C: 176 nM
  k0.5 of the reciprocal lag length before lysis of sheep erythrocytes against pneumolysin concentration (fit with Eq. 3), 35.0 °C: 243 nM
  k0.5 of the reciprocal lag length before lysis of sheep erythrocytes against pneumolysin concentration (fit with Eq. 3), 37.0 °C: 405 nM
  k0.5 of the reciprocal lag length before lysis of sheep erythrocytes against pneumolysin concentration (fit with Eq. 3), 38.5 °C: 266 nM
